# From the RNAGym collection of RNA variant scans (doi:10.1073/pnas.2313332121)
# Variants at the floor of the assay were thinned out.
# B1: TPR 5TU (parent)
# chain: GGAUCUUCUCGAUCUAACAAAAAAGACAAAUCUGCCACAAAGCUUGAGAGCAUCUUCGGAUGCAGAGGCGGCAGCCUUCGGUGGCGCGAUAGCGCCAACGUUCUCAACUAUGACACGCAAAACGCGUGCUCCGUUGAAUGGAGUUUAUCAUG
# Variants of: B1
# Assay: polymerase ribozyme fitness, log enrichment relative to wild type (log ratio); higher = more active; in vitro selection for triplet polymerase activity
# Outline: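 Mutant libraries of both subunits of a heterodimeric triplet polymerase ribozyme were PCR-built, transcribed, and selected once in triplicate, with frozen incubation at −7 °C and capture of gel-excised extended constructs on streptavidin beads before RT-PCR. Illumina sequencing of input and output libraries was filtered to genotypes with ≥10 input reads and ≥1 read per output. Fitness is the logarithm of genotype enrichment over wild-type enrichment, using inverse-variance-weighted replicate averages. The logarithm is base 2.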
row,Variant,polymerase ribozyme fitness (log ratio)
1,GGAUCUUCUCGAUCUAACAAAAAAGACAAAUCUGCCACAAAGCUUGAGAGCAUCUUCGGAUGCAGAGGCGGCGGCCUUCGGUCGCGCGAUAGCGCCAACGUUCUCAACUAUGACACGCAAAACGCGUGCUCCGUUGAAUGGAGUGUAUCAUG [A73G G83C U145G],-2.01
2,GGAUCUUCUCGAUCUAACAAAAAAGACAAAUCUGCCACAAAGCUUGAGAGCAUCUUCGGAUGCAGAGGCGGCGGUCUUCGGUGGCGCGAUAGCGCCAAAGGUCUCAACUAUGACACGCAAAACGCGUGCUCCGUUGAAUGGGGUUUAUCAUG [A73G C75U C99A U101G A142G],≤ -4.2
3,GGAUCUUCUCGAUCUAACAAAAAAGACAAAUCUGCCACAAAGCUUGAGAGCAUCUUCGGAUGCAGAGGCGGCGGCCUUCGGUGGCGCGAUAGCGCCAACGUUCUCAACUAUGACACGCAAAACGCGUGCCCCGUUGAAUGGAGUUUAUCAUG [A73G U130C],0.842
4,GGAUCUUCUCGAUCUAACAAAAAAGACAAAUCUGCCACAAAGCUUGAGAGCAUCUUCGGAUGCAGAGGCGGCUGCCUUCGGUGGCGCGAUAGCGCCAACGUUCUCAACUAUGACGCGCAAAACGCGUGCUCCGUUGAAUGGAGUUUAUCAUG [A73U A115G],-2.08
5,GGAUCUUCUCGAUCUAACAAAAAAGACAAAUCUGCCACAAAGCUUGAGAGCAUCUUCGGAUGCAGAGGCGGCGGCCUUCGGUGGCGCGAUAGCGCCAACGUUCUCAACUAUGACACGCAAAACGUGUGCUCCGUUGAAUGGAGUUUAUCAUG [A73G C125U],-0.349
6,GGAUCUUCUCGAUCUAACAAAAAAGACAAAUCUGCCACAAAGCUUGAGAGCAUCUUCGGAUGCAGAGGCGGCGGCCUUCGGUGGCGUGAUAUCGCCAACGUUCUCAACUAUGACACGCAAAUCGCGUGCUACGUUGAAUGGAGUUUAUCAUG [A73G C87U G92U A122U C131A],-4.1
7,GGAUCUUCUCGAUCUAACAAAAAAGACAAAUCUGCCACAAAGCUUGAGAGCAUCUUCGGAUGCAGAGGCGGCUGCCUUCGGUGGCGCGAUAGCGCCUACGUUCUCAACUAUGACGCGCAAAACGCGUGCUCCGUUGAAUGGAGUUUAUCAUG [A73U A97U A115G],-3.45
8,GGAUCUUCUCGAUCUAACAAAAAAGACAAAUCUGCCACAAAGCUUGAGAGCAUCUUCGGAUGCAGAGGCGGCUGACUUCGGUGGCGCGAUAGCGCCAUCGUUCUCAACUAUGAUACGCAAAACGAGUGCUCCGUAGAAUGGAGUUUAUCAUG [A73U C75A A98U C114U C125A U135A],≤ -4.2
9,GGAUCUUCUCGAUCUAACAAAAAAGACAAAUCUGCCACAAAGCUUGAGAGCAUCUUCGGAUGCAGAGGCGGCGGCCUUCGGUGGCGCGAUAGCGCCAACGUUCUCAACUAUGACACGCAAAACGCGUGCUCCGUUGAAUGGAGUUUAUAAUG [A73G C149A],≤ -4.2
10,GGAUCUUCUCGAUCUAACAAAAAAGACAAAUCUGCCACAAAGCUUGAGAGCAUCUUCGGAUGCAGAGGCGGCGGCCUUCGGUGGCGCGAUAGGGCCAACGUUCUCAACUAUGACACGCAAAACGCGUGCUCCGUUGAAUGGAGUUUAUCAUG [A73G C93G],-2.73
11,GGAUCUUCUCGAUCUAACAAAAAAGACAAAUCUGCCACAAAGCUUGAGAGCAUCUUCGGAUGCAGAGGCGGCGGCCUUCGGUGGCGCGAUAGUGCCAACGUUCUCAACUAUGACACGCAAAACGCGUGCUCCGUUGAAUGGAGUUUAUCAUG [A73G C93U],-1.28
12,GGAUCUUCUCGAUCUAACAAAAAAGACAAAUCUGCCACAAAGCUUGAGAGCAUCUUCGGAUGCAGAGGCGGCGGCCUUCGGUGACGCGAUAGCGCCAACGUUCUCAACUAUGACACGCAAAACGCGUGCUCCGUUGAAUGGAGUUUAUCAUG [A73G G84A],-0.268
13,GGAUCUUCUCGAUCUAACAAAAAAGACAAAUCUGCCACAAAGCUUGAGAGCAUCUUCGGAUGCAGAGGCGGCGGCCUUCGGUGGCGCAAUAGCGCCAACGUUCUCAACUAUGACACGCAAAACCCGUGCUCCGUUGAAUGGAGUUUAUCAUG [A73G G88A G124C],≤ -4.2
14,GGAUCUUCUCGAUCUAACAAAAAAGACAAAUCUGCCACAAAGCUUGAGAGCAUCUUCGGAUGCAGAGGCGGCUGCCUUCAGUGGCGCGAUAGCGCCAACGUUCUCAACUAUGACACGCAAAACGCGUGCUCCGCUGAAUGGAGUUUAUCAUG [A73U G80A U134C],-1.91
15,GGAUCUUCUCGAUCUAACAAAAAAGACAAAUCUGCCACAAAGCUUGAGAGCAUCUUCGGAUGCAGAGGCGGCGGCCUUCGGUGGCGCGAUAGCGCCAACGUUCUCAACUAUGACACGCAAAACGCGUGCUCCGUUGAAUAGAGUUUAUCAUG [A73G G140A],-2.98
16,GGAUCUUCUCGAUCUAACAAAAAAGACAAAUCUGCCACAAAGCUUGAGAGCAUCUUCGGAUGCAGAGGCGGCUGCCUUCGGUGGCGCGAUAGCGCGAUCGUUCUCAACUAUGACACGCAUAACGCGUGCUCCGUUGGAUGGAGUUUAUCAUG [A73U C96G A98U A120U A137G],-2.92
17,GGAUCUUCUCGAUCUAACAAAAAAGACAAAUCUGCCACAAAGCUUGAGAGCAUCUUCGGAUGCAGAGGCGGCGGCCUUCGGUGGCGGCAUAGCGCCAACGUUCUCAACUAUGACACGCAAAACCCGGGCUCCGUUGAAUGGACAUUAUCAUG [A73G C87G G88C G124C U127G G143C U144A],≤ -4.2
18,GGAUCUUCUCGAUCUAACAAAAAAGACAAAUCUGCCACAAAGCUUGAGAGCAUCUUCGGAUGCAGAGGCGGCGGCCUUCGGUGGCGCGAUAGCGCCAACGUUCUCAACUAUGACACGCAAAACGCGUGCUCCGUUGCAUGGAGUGUAUCAUG [A73G A137C U145G],-3.74
19,GGAUCUUCUCGAUCUAACAAAAAAGACAAAUCUGCCACAAAGCUUGAGAGCAUCUUCGGAUGCAGAGGCGGCUGCCUUCGGUGGCGCGAUAGCGCCAACGUUCUCAACUAUGACAGGCAAAACGCGUGCUCCGUUGAAUGGAGUUUAUCAUG [A73U C116G],-2.81

row,Variant,polymerase ribozyme fitness (log ratio)
1,GGAUCUUCUCGAUCUAACAAAAAAGACAAAUCUGCCACAAAGCUUGAGAGCAUCUUCGGAUGCAGAGGCGGCGGCCUUCGGUGGCGCGAUAGCGCCAACGUUCUCAACUAUGACACGCAAAACGCGUGCUCCGUUGAAUGGAGCUUAUCAUG [A73G U144C],0.137
2,GGAUCUUCUCGAUCUAACAAAAAAGACAAAUCUGCCACAAAGCUUGAGAGCAUCUUCGGAUGCAGAGGCGGCGGCCUUCGGUGGCGCGAUAGCGCCAACGUUCUCAACUAUGACACGCAAAACGCGUGCUCCGUUGAAUGGAGGUUAUCAUG [A73G U144G],1.28
3,GGAUCUUCUCGAUCUAACAAAAAAGACAAAUCUGCCACAAAGCUUGAGAGCAUCUUCGGAUGCAGAGGCGGCGGCCUUCGGUGGCACGAUAGCGCCAACGUUCUCAACUAUGACACGCAAAACGCGUGCUCCGUUGAAUGGAGUUUAUCGUG [A73G G86A A150G],≤ -4.2
4,GGAUCUUCUCGAUCUAACAAAAAAGACAAAUCUGCCACAAAGCUUGAGAGCAUCUUCGGAUGCAGAGGCGGCUGCCUUGGGUGGCGCGAUAGCGCCAACGUUCUCAUCUAUGCCACGCAAAACGCGUGCUCCGUUGAAUGGAGUUUAUCAUG [A73U C79G A107U A113C],≤ -4.2
5,GGAUCUUCUCGAUCUAACAAAAAAGACAAAUCUGCCACAAAGCUUGAGAGCAUCUUCGGAUGCAGAGGCGGCGGCCUUCGGUGGUGCGAUAGCGCCAACGUUCUCAACUAUGACACGCAAAACGCGUGCUCCGUUGAAUGGAGUUUAUCAUG [A73G C85U],-0.115
6,GGAUCUUCUCGAUCUAACAAAAAAGACAAAUCUGCCACAAAGCUUGAGAGCAUCUUCGGAUGCAGAGGCGGCGGCCUUCGGUGGCGCGAUAGCUCCAACGUUCUCGACUAUGACACGCAAAACGCGUGCUCCGUUGAAUGGAGUUUAUCAUG [A73G G94U A106G],-0.312
7,GGAUCUUCUCGAUCUAACAAAAAAGACAAAUCUGCCACAAAGCUUGAGAGCAUCUUCGGAUGCAGAGGCGGCUGCUUUCGGUGGCGCGAUAGCGCCAACGUUCUCAACUAUGACACGCAAAACGCGUGCUCCGUUGAAUGGAGUUUAUCAUG [A73U C76U],-1.32
8,GGAUCUUCUCGAUCUAACAAAAAAGACAAAUCUGCCACAAAGCUUGAGAGCAUCUUCGGAUGCAGAGGCGGCGGCCUUCGGUCGCGCGAUAGCGGCAACGUUCUCAACUAUGACACGCACAGCGCGUGCUCCGUUGAAUGGAGUUUAUCAUG [A73G G83C C95G A120C A122G],≤ -4.2
9,GGAUCUUCUCGAUCUAACAAAAAAGACAAAUCUGCCACAAAGCUUGAGAGCAUCUUCGGAUGCAGAGGCGGCGGCCUUCGGUGGAGCGAUAGCGCCAACGUUCUCAACGAUGACACGCAAAACGCGUGCUCCGUUGAAUGGAGUUUAUCAUG [A73G C85A U109G],-2.78
10,GGAUCUUCUCGAUCUAACAAAAAAGACAAAUCUGCCACAAAGCUUGAGAGCAUCUUCGGAUGCAGAGGCGGCGGCCUUCGAUGGUGCGAUAGCGCCAACGUUCUCAACUAUGACACGCAAAACGCGUGCUCCGUUGAAUGGAGUUUAUCAUG [A73G G81A C85U],0.246
11,GGAUCUUCUCGAUCUAACAAAAAAGACAAAUCUGCCACAAAGCUUGAGAGCAUCUUCGGAUGCAGAGGCGGCGGCCUUCGGUGGCGCGAUACCGCAAACGUUCUCAACUAUGACACGCAAAACGCGUGCUCCGUUGAAUGGAGUUUAUCAUG [A73G G92C C96A],-2.51
12,GGAUCUUCUCGAUCUAACAAAAAAGACAAAUCUGCCACAAAGCUUGAGAGCAUCUUCGGAUGCAGAGGCGGCGGUCCUCGGUGGCGCGUUAGCGCCAACGUUCUCAACUAUGACACGCAAAACGCGUGCUCCGUUAAAUGGAGUUUAUGAUG [A73G C75U U77C A89U G136A C149G],≤ -4.2
13,GGAUCUUCUCGAUCUAACAAAAAAGACAAAUCUGCCACAAAGCUUGAGAGCAUCUUCGGAUGCAGAGGCGGCGGCCUUCGGUGGCUCGAUAGCGCCAACGUUCUUUACUAUGACACGCAAAACGCGUGCUCCGUUGAAUGGAGCUUAUCAUG [A73G G86U C105U A106U U144C],-3.89
14,GGAUCUUCUCGAUCUAACAAAAAAGACAAAUCUGCCACAAAGCUUGAGAGCAUCUUCGGAUGCAGAGGCGGCGGCCUUCGAUAGCGCGAUAGCGCAAACGUUCUCAACUAUGACACGCUAAACCCGUGCUCCGUUGAAUGGAGUUUAUCAUG [A73G G81A G83A C96A A119U G124C],≤ -4.2
15,GGAUCUUCUCGAUCUAACAAAAAAGACAAAUCUGCCACAAAGCUUGAGAGCAUCUUCGGAUGCAGAGGCGGCGGCCUUCGGUGGCGCGAUAGCACCUACGUUCUCAACUAUGACACGCAUAACGCGUGCUCCGUUGAAUGGAGUUUAUCAUG [A73G G94A A97U A120U],-1.74
16,GGAUCUUCUCGAUCUAACAAAAAAGACAAAUCUGCCACAAAGCUUGAGAGCAUCUUCGGAUGCAGAGGCGGCGGCCUUCGGUGGCGCGAUAGCGCGAACGUUCUCAACUAUGACACGCAAAACGCGUGCUCCGUUGAAUGGAGUUUAUCAUG [A73G C96G],-0.616
17,GGAUCUUCUCGAUCUAACAAAAAAGACAAAUCUGCCACAAAGCUUGAGAGCAUCUUCGGAUGCAGAGGCGGCUGCCUUCGAUGGCGCGAUAGCGCCAACGUUCUCAACUAUGACACGCAAAUCGCGUGCUCCGUUGAAUGGAGUUUAUCAUG [A73U G81A A122U],-0.858
18,GGAUCUUCUCGAUCUAACAAAAAAGACAAAUCUGCCACAAAGCUUGAGAGCAUCUUCGGAUGCAGAGGCGGCGGCCUUCGGUGGCGCCAUAGCGCCAACGUUCUCAUCUAUGACACGCAAAACGCGUGUUCCGUUGAACGGAGUUUAACAUG [A73G G88C A107U C129U U139C U148A],≤ -4.2
19,GGAUCUUCUCGAUCUAACAAAAAAGACAAAUCUGCCACAAAGCUUGAGAGCAUCUUCGGAUGCAGAGGCGGCUGCCUUCGGUGGCGCGAUAGUGCCAACGUUCUCAACUAUGACACGCAGAACGCGUGCUCCGUUGAAUGGAGUUUAUCAUG [A73U C93U A120G],-2.61
